The source of these data is patent US20240116985A1 (published 2024).

Starred links: 1 amine or outer side, 2 acyl side, 3 side chain; linkers in the order of their positions; H or OH if unused. Positions of bridges follow the written chain, without caps; N, C: chain ends. Non-standard residues stand in square brackets, D forms with d. Primed or numbered codes have the meaning given here. No end group written: not given here. *: point of attachment. PyrS2″ = (S)-3-amino-1-((pent-4-en-1-yloxy)carbonyl)pyrrolidine-3-carboxylic acid (stapling residue), C=CCCCOC(=O)N1CC[C@@](N[*:1])(C(=O)[*:2])C1; B5(4) = 2,2-bis(4-pentenyl)glycine = 2-amino-2-(pent-4-en-1-yl)hept-6-enoic acid (stitching residue), C=CCCCC(CCCC=C)(N[*:1])C(=O)[*:2]; B5(3) = 2,2-bis(4-pentenyl)glycine (stitching residue), C=CCCCC(CCCC=C)(N[*:1])C(=O)[*:2]; Phe(2-CF3) = N[C@@H](Cc1ccccc1C(F)(F)F)C(=O)O; Bta = N[C@@H](Cc1csc2ccccc12)C(=O)O; αAllylPro = C=CC[C@@]1(C(=O)O)CCCN1; tBuAla = CC(C)(C)C[C@H](N)C(=O)O; 3Thi = N[C@@H](Cc1ccsc1)C(=O)O; NH(CH2)6NH2 = NCCCCCCN*

Experiment in all cases: cell-based or functional assay
Test [1] concerns the target T1, beta-catenin in DLD1 TCF/LEF luciferase reporter cells (UniProt P35222 1-781).
T1 sequence (looked up): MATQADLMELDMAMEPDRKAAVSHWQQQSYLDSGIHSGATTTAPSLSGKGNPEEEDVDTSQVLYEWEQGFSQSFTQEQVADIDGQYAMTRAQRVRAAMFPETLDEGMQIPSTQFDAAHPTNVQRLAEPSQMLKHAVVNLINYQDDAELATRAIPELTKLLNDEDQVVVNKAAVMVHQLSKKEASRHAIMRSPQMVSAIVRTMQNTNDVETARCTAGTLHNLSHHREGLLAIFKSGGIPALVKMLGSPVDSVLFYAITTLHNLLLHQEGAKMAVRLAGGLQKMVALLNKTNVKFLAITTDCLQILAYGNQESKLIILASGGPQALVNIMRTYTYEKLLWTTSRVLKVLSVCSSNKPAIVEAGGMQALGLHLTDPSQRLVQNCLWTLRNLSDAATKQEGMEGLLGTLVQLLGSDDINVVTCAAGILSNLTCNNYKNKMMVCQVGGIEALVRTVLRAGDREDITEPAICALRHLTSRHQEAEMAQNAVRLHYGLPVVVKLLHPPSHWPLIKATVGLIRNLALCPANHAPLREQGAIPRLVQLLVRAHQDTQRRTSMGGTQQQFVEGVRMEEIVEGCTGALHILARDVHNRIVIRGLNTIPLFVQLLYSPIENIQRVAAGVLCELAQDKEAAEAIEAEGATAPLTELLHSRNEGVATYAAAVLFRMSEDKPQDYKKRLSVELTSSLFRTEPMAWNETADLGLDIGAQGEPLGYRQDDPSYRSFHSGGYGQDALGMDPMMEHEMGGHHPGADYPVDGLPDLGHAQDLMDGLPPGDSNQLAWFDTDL

The target of a further test is T2, B-cat-Halo (UniProt P35222 1-781).
T2 sequence (looked up): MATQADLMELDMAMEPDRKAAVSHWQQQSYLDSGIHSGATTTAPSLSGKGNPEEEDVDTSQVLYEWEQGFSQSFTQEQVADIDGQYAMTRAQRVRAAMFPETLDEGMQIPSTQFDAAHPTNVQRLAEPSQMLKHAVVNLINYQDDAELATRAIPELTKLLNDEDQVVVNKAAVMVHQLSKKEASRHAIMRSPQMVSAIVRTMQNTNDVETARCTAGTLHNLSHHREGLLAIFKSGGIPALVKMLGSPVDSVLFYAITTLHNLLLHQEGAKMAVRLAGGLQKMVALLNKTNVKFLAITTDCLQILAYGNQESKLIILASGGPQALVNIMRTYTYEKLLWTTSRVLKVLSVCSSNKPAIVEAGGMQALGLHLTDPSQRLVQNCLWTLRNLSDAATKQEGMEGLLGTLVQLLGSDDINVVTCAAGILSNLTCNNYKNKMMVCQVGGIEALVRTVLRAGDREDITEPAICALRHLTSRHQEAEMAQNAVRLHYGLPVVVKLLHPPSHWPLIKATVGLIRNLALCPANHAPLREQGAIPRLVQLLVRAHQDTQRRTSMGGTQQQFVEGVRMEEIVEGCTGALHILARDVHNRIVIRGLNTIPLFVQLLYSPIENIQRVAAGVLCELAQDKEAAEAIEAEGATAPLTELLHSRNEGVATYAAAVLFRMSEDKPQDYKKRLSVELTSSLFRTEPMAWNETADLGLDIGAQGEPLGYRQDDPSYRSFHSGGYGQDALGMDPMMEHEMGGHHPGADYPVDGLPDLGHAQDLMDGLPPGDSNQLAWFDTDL

Test [2] deals with T3, B-cat-Halo (Nano-BRET construct expressed in HEK293 cells) (UniProt P35222 1-781).
T3 sequence (looked up): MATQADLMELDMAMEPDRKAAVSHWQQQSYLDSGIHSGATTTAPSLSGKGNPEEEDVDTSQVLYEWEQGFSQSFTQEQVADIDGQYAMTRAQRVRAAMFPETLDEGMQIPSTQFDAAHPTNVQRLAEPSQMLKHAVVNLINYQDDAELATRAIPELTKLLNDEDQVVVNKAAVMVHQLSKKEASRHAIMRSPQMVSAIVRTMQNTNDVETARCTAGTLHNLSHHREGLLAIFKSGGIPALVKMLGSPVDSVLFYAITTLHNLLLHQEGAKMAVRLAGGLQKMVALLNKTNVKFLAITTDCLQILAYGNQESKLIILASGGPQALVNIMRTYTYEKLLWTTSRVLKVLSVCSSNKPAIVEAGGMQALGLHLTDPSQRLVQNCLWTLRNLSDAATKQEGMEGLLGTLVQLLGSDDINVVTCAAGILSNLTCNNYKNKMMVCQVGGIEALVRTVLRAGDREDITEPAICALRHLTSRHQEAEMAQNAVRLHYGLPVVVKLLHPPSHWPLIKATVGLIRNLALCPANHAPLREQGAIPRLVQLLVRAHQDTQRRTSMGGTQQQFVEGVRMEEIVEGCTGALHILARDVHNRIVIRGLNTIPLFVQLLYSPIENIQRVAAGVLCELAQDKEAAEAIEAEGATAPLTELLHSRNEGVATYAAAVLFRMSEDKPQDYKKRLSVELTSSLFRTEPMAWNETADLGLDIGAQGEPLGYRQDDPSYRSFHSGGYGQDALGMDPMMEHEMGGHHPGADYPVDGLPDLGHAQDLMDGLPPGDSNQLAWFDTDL

On to Ac-[αAllylPro]D[tBuAla][B5(4)]DDAAFF[PyrS2″][Phe(2-CF3)][Bta]Q-NH2 (staple 1-4, 4-11) [I-1319], for which the “DLD1 4% Abs IC50” value in test [1] was 2.1 µM. For the same molecule, the “NanoBRET Abs IC50” value in the test with B-cat-Halo was 4.2 µM.

B1: I-882 (peptide)
peptide: Ac-[αAllylPro]D[tBuAla][B5(3)]DDAAFN[PyrS2″][3Thi][Bta]Q-{NH(CH2)6NH2}
modifications: staple 1-4, 4-11; not fully specified; printed as Ac-PL3-Asp-Npg-B5-Asp-Asp-Ala-Ala-Phe-Asn-PyrS2-3Thi-BztA-Gln-6AmHex
As for B1, the “NanoBRET IC50” value in test [2] amounted to 22.5 µM.

B2: I-873 (peptide)
peptide: Ac-[αAllylPro]D[tBuAla][B5(3)]DDAAFN[PyrS2″][3Thi][Bta]QAA
modifications: staple 1-4, 4-11; not fully specified; printed as Ac-PL3-Asp-Npg-B5-Asp-Asp-Ala-Ala-Phe-Asn-PyrS2-3Thi-BztA-Gln-Ala-Ala
Take B2: in test [2], the “NanoBRET IC50” value came out at 8.9 µM.
Ac-[αAllylPro]D[tBuAla][B5(4)]DDAAFL[PyrS2″][Phe(2-CF3)][Bta]Q-NH2 (staple 1-4, 4-11) [I-1318]: the “DLD1 4% Abs IC50” value in test [1] came out at 3.9 µM. Besides, the “NanoBRET Abs IC50” value with B-cat-Halo was 4.8 µM.
